Laboratory results taken from patent US20250368740A1 (SHENZHEN BAISHITONG TECHNOLOGY DEVELOPMENT, published 2025).
Values joined by “and” are separate entries in the source; they are usually repeats but may differ in a detail not shown here. Equal entries are not always repeated.

Key:
[1] = target: T1, recombinant human CD276-ECD protein (human, UniProt Q5ZPR3 29-255); assay: indirect ELISA, plate coated with human CD276-ECD
T1 construct: Purchased from Acro BIOSYSTEMS; Used native (ELISA) and reduced and denatured (Western blot); also called B7-H3
T1 sequence: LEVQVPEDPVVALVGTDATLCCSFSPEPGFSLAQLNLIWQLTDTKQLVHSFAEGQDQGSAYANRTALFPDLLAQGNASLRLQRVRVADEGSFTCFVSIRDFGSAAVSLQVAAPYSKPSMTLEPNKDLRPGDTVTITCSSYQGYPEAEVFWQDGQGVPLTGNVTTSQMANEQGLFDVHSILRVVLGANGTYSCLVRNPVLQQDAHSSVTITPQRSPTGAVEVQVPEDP

[2] = target: T2, biotinylated human CD122/132 (human, UniProt P14784 27-239; P31785 23-254, limits assumed, biotinylated (site not stated)); assay: sandwich ELISA: antibody on coated human CD276-ECD, biotinylated CD122/132 detected with SA-HRP
T2 construct: Bought heterodimeric reagent; also called CD122/CD132
T2 sequence (looked up) 1: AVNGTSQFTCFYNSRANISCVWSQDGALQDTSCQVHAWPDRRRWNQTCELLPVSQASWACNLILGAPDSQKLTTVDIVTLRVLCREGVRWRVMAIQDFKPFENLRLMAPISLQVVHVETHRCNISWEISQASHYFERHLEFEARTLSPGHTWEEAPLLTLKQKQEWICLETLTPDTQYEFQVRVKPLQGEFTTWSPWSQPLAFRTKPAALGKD
T2 sequence (looked up) 2: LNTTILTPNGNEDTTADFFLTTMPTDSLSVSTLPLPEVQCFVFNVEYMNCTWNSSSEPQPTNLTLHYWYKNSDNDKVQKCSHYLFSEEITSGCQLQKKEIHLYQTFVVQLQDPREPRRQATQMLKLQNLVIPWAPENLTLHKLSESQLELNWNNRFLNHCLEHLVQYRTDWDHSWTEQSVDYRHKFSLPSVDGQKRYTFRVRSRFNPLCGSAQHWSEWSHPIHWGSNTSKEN
Description: The method was as follows: The plates were pre-coated with human CD276-ECD protein diluted to 2 μg/mL in the coating solution (50 mM carbonate coating buffer, pH 9.6) and incubated at 4° C. overnight. The plates were then blocked with 5% skim milk powder at 37° C. for 2 hours. Afterward, the plates were washed 3 times with PBST, and the to-be-tested antibody, diluted in 1% BSA-PBST at various gradients, was added to the blocked plates at 100 μL per well. The plates were incubated at 37° C. for 1 hour. […] Following 3 additional washes with PBST, diluted HRP-conjugated streptavidin (SA) (purchased from Pierce) was added, and the plates were incubated at 37° C. for 30 minutes. After 3 more washes with PBST, residual droplets were removed by blotting on absorbent paper. Then, 100 μL of TMB substrate (purchased from KPL) was added to each well, and the plates were incubated at room temperature (20±5° C.) in the dark for 5 minutes.
As a control, hu147 could bind to CD276 (as shown in Embodiment 8), but not CD122/CD132.

| Binder | EC50 [1] | binding result [2] |
| --- | --- | --- |
| humanized antibody hu147 (antibody, Human IgG1 / kappa; also called hul47) heavy: not shown light: EIVMTQSPPTLSLSPGERVTLSCRASENVGTYVSWYQQKPGQAPRLLIYGASNRYTGIPARFSGSGSGTDFTLTISSLQPEDFAVYYCGQRYSYPFTFGGGTKLEIKRTVAAPSVFIFPPSDEQLKSGTASVVCLLNNFYPREAKVQWKVDNALQSGNSQESVTEQDSKDSTYSLSSTLTLSKADYEKHKVYACEVTHQGLSSPVTKSFNRGEC | 0.0067 µg/mL and 0.04 nM | no binding |
| Fc-mutated humanized antibody hu147mu (antibody, human IgG1, kappa, about 150 kDa; also called hul47mu) heavy: not shown light: EIVMTQSPPTLSLSPGERVTLSCRASENVGTYVSWYQQKPGQAPRLLIYGASNRYTGIPARFSGSGSGTDFTLTISSLQPEDFAVYYCGQRYSYPFTFGGGTKLEIKRTVAAPSVFIFPPSDEQLKSGTASVVCLLNNFYPREAKVQWKVDNALQSGNSQESVTEQDSKDSTYSLSSTLTLSKADYEKHKVYACEVTHQGLSSPVTKSFNRGEC | 0.0068 µg/mL and 0.05 nM | – |
